Results as given in the Human Domainome abundance scans (Beltran et al. 2025).

B1: Histone-lysine N-methyltransferase SETD2, residues 2382 to 2430; numbered along this chain, Q9BYW2 (parent)
chain: SPPKPKTIVLPPNWKTARDPEGKIYYYHVITRQTQWDPPTWESPGDDAS

Variants of: B1
Test: abundance fitness (aPCA) (normalised: wild type 0, dead -1); higher = more abundant; growth selection in yeast, the domain comes from the species named
Settings: Homo sapiens

Abundance fitness, by site and new letter:
D46: W -0.358
T40: R -0.019 | F -0.251 | Q 0.277 | V 0.057 | M 0 | I -0.629 | S 0.062 | C 0.151 | L -0.071 | W -0.232 | P 0.017 | Y -0.123 | A 0.15 | G 0.064 | D -0.342 | H 0.155 | N 0.045 | E 0.12
P39: S -0.719 | R -0.96 | L -0.892 | W -0.987 | V -0.894 | T -0.98 | I -0.835 | M -0.908 | N -0.391 | Q -0.659
D47: H -0.028 | K -0.16 | T -0.032 | A -0.051 | Y -0.023 | S 0.037 | L -0.107 | I -0.337 | C -0.206 | Q 0.257 | G -0.002 | P -0.2 | W -0.288 | R -0.146 | M -0.226 | V -0.063 | F -0.443 | N -0.241 | E 0.035
S49: N -0.696 | R -0.158 | V -0.62 | C -0.467 | E -0.279 | M -0.154 | F -0.391 | P 0.043 | A -0.418 | I -0.088 | T -0.013 | Q -0.031 | Y -0.194
S43: E 0.193 | L -0.064 | Y -0.263 | P -0.321 | V -0.045 | K 0.145 | W -0.23 | D 0.078 | N -0.369 | G -0.15 | F -0.375 | M -0.102 | I -0.095 | T -0.061 | Q 0.091 | R -0.11 | C -0.471 | H -0.237 | A -0.048
A48: H -0.081 | P 0.08 | C 0.085 | Q -0.153 | V -0.164 | W -0.07 | Y 0.036 | E 0.1 | F -0.094 | M 0.151 | S -0.027 | G -0.014 | K 0.091 | T 0.147 | R 0.107 | N 0.153 | D 0.1 | I 0.095 | L -0.077
P44: A -0.115 | E -0.096 | I -0.452 | F -0.654 | G -0.128 | V -0.263 | W -0.283 | Q -0.067 | D -0.108 | S -0.166 | R -0.031 | N -0.196 | K -0.128 | H 0.036 | M -0.016 | C -0.448 | T -0.103
G45: C -0.002 | R 0.035 | L 0.076 | E 0.02 | P 0.233 | K 0.006 | T -0.141 | S 0.025 | A 0.087 | Q -0.313 | Y 0.049 | D -0.061 | I 0.125 | F 0.019 | W 0.026 | H -0.73 | V -0.177 | M -0.082
W41: A 0.07 | D 0.06 | R 0.091 | E 0.166 | S 0.195 | L 0.078 | Y 0.338 | M 0.16 | I 0.05 | C 0.04 | K 0.165 | H 0.117 | G 0.034 | V 0.077 | Q 0.249 | P -0.058 | F 0.334
E42: C -0.303 | T -0.341 | R -0.184 | W -0.172 | S 0.011 | G -0.053 | L -0.412 | D -0.504 | V -0.141 | Q -0.291 | K -0.074 | A -0.148 | F 0.124 | N -0.173 | P 0.087 | M -0.457
